Measurements reported in patent publication CN114989295A.

B1: 抗MERS-CoV鼠单克隆抗体6E4 (antibody, V domains shown)
VH: EVDLSESLGGQVKVTGSLKLDEAASGSMHGGDVKEGASLWLWVRVTPEIELEWRDAQGVAFISAGESSTYRFTTSRDNARSDRYLQMSELRKLDTAFIYCGRYRVTLSTLQEYSWGQGDWVTTDA
VL: DIQETQTRSVLSAALGSRVTISCSMDIANYVNEYQWYQSPKPDFDVKLSIYEVLIYRSVRLQSGVPSRFSKKGSLDDYSLTISCFEPEDVEIYCNDCQILGSELPEFGDFTKIEILR
B2: 抗MERS-CoV鼠单克隆抗体7G5 (antibody, V domains shown)
VH: EVQGQVSGLKLVVEGASVLKSCTSTGFLSGMGLVMPGGSNHSWVQEVPEIVLEWSGDWSANYSQDGLITSKATASADTTDSTAYLQLSEFDSEDTAVSFSCASNWLMLYMASLNWGQGEDDTVQS
VL: DISLTRSPSTLSATPQESVSLSCKQLISSYLMWTQWYQSKSHESLELTEKVELIYSNSHLHTGIPFSFSGDDSGTDFFLKVNVNSTEDFGEYFCSCQDQNTSERGDFGQATKLLEK

Molecular target: 重组MERS-CoV-S蛋白 (MERS-CoV) (UniProt K9N5Q8)
Sequence of UniProt K9N5Q8 (K9N5Q8 324-644 limits assumed): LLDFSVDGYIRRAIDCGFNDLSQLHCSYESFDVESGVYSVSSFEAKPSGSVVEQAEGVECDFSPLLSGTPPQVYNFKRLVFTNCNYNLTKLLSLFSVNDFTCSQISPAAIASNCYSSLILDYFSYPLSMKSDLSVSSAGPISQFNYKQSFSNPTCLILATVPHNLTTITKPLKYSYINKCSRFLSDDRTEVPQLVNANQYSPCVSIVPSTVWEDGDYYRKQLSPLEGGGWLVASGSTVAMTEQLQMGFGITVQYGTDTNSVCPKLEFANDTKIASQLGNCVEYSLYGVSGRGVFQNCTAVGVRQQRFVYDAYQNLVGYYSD
Experiment: indirect ELISA, hybridoma supernatant on coated MERS-S protein

Binder	效价 (titer (1:dilution))	敏感性
B1	256000	2.31 ng/mL
B2	256000	0.561 ng/mL
